Measured values reported in the supplement of paper PMC10567573.

B1: NETO1 (parent)
chain: GFSPIIGRFCGQQNPPVIKSSGRF
B2: C10orf62 (parent)
chain: RALEEVEMKLQKNFLTQRENTIAG

Variants of: B1
Experiment: protein stability index of a GFP-peptide fusion (GPS, HEK-293T) (PSI 1-6); higher = more stable
Conditions: c terminus: a fixed tail appended
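Also: lentivirally expressed fusions sorted by FACS into six bins by GFP to DsRed ratio, PSI derived from sequencing read proportions per bin multiplied by bin number.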

Variant	protein stability index
I18S	2.65
I18Y	2.43
I18M	2.17
I18R	3.13
I18N	3.43
I18A	2.7
I18C	2.65
I18K	2.72
I18T	2.15
I18L	2.17
I18D	2.73
I18V	3.01
I18H	1.76
I18P	2.92
I18E	2.61
I18Q	2.78
I18W	2.1
I18F	1.95
I18G	2.24
S20F	2.26
S20T	1.88
S20A	2.67
S20N	2.45

Variant	protein stability index
S20L	2.59
S20Y	1.43
S20K	2.65
S20P	2.45
S20C	2.18
S20R	2.44
S20W	1.99
S20Q	2.67
S20I	1.58
S20G	1.9
S20V	1.68
S20E	2.11
S20M	1.66
S20H	2.16
S20D	1.55
V17A	2.04
V17T	2.05
V17W	2.42
V17C	1.62
V17S	2.3
V17F	1.66
V17L	1.66
V17Y	2.12

Variant	protein stability index
V17G	2.62
V17E	2.54
V17K	2.5
V17H	2.08
V17I	2.51
V17N	2.5
V17R	2.23
V17P	2.22
V17D	2.75
V17M	2.88
V17Q	2.52
G22Q	2.35
G22D	2.06
G22F	1.82
G22R	2.19
G22H	1.59
G22S	2
G22M	1.65
G22W	2.14
G22P	2.15
G22K	2.54
G22A	1.87
G22T	2.11

Variant	protein stability index
G22L	2.81
G22I	1.73
G22N	2.2
G22C	1.97
G22V	1.63
G22E	1.63
G22Y	2.1
S21R	2.26
S21N	2.09
S21A	2.88
S21L	1.75
S21P	2.25
S21C	2.42
S21H	2.06
S21M	2.18
S21F	1.68
S21V	2.15
S21E	2.22
S21Q	2.08
S21D	1.82
S21I	1.57
S21G	2.53
S21T	2.36

Variant	protein stability index
S21W	1.8
S21K	2.22
S21Y	2.36
R23N	2.09
R23Y	2.6
R23M	1.96
R23G	1.67
R23Q	1.56
R23V	2.22
R23W	2.26
R23T	1.64
R23P	3.38
R23S	1.94
R23I	1.65
R23H	1.76
R23C	1.44
R23L	2.35
R23A	1.35
R23D	2.3
R23K	2.44
R23F	1.89
R23E	2.04
K19C	1.93

Variant	protein stability index
K19S	2.48
K19T	1.94
K19Q	1.42
K19E	2.27
K19D	2.26
K19M	2.58
K19W	1.78
K19I	2.07
K19F	1.69
K19R	1.85
K19G	3.23
K19H	1.64
K19A	2.27
K19Y	1.91
K19L	2.3
K19P	2.37
K19N	1.65
K19V	1.48
P15R	1.65
P15M	1.99
P15L	2.59
P15T	2.04
P15S	1.93

Variant	protein stability index
P15Y	2.1
P15N	2.52
P15Q	1.96
P15W	2.13
P15V	2.14
F24A	2.42
F24H	2.26
F24C	2.48
F24I	2.23
F24D	2.98
F24W	1.6
F24L	3.69
F24K	3.64
F24R	2.66
F24Y	2.4
F24M	1.97
F24Q	3
F24P	2.51
F24T	2.65
F24E	2.76
F24G	3.51
F24N	2.64
F24S	3.88

Variant	protein stability index
F24V	2.42
P16E	2.58
P16W	1.32
P16Q	1.69
P16V	2.26
P16L	1.59
P16D	2.1
P16M	2.16
P16N	1.73
P16K	2.03
P16T	2.23
P16F	1.85
P16A	2.03
P16C	2.02
P16Y	2.24
P16I	1.86
P16S	2.05
P16G	1.85
P16R	2.32
P16H	2.18

Variants of: B2
Experiment: as above
Conditions: c terminus: a fixed tail appended

Variant	protein stability index
E7D	3.69
E7Q	3.35
E7S	2.97
E7G	2.84
E7M	1.33
E7P	3.98
E7Y	2.38
E7H	2.17
E7N	3.61
E7T	2.6
E7A	2.02
E7I	3.36
E7C	1.8
E7R	2.29
E7K	1.96
E7V	1.27
E7F	2.17
K9A	3.09
K9D	4.13
K9C	2.41
L3D	4.8
L3G	4.31
L3T	4.12
L3W	2.95
L3C	4.02
L3H	4.34

Variant	protein stability index
L3K	4.33
L3E	5.08
L3Q	4.47
L3V	4.27
L3R	4.09
L3A	4.17
L3Y	3.5
L3M	3.86
L3N	4.91
L3I	4.17
L3S	4.05
L3P	4.26
L3F	4.04
A2D	4.1
A2S	3.9
A2I	2.66
A2C	3.27
A2E	4.41
A2V	2.96
A2G	4.1
A2H	3.55
A2P	4.4
A2N	3.89
A2T	3.83
A2L	2.61
A2M	2.6

Variant	protein stability index
A2Y	2.98
A2R	3.61
A2W	2.29
A2K	3.7
A2F	2.54
A2Q	4.32
E4M	2.63
E4W	1.92
E4C	3.31
E4P	4.36
E4H	3.18
E4T	3.72
E4D	3.44
E4S	3.64
E4V	2.36
E4K	3.36
E4Q	2.89
E4Y	2.56
E4L	2.31
E4N	3.29
E4F	3.13
E4A	2.9
E4G	4.05
E4R	4
E4I	1.99
M8T	4.23

Variant	protein stability index
M8H	4.23
M8V	3.35
M8A	4.09
M8R	3.38
M8I	3.26
M8D	4.6
M8W	2.81
M8P	3.94
M8S	4.08
M8Q	4.12
M8F	3.65
M8N	3.75
M8L	3.3
M8C	3.58
M8G	4.64
M8Y	3.6
M8E	4.92
M8K	2.63
V6G	4.3
V6W	3.76
V6M	3.23
V6Q	3.93
V6C	3.56
V6N	4.33
V6T	3.73
V6H	4.58

Variant	protein stability index
V6L	3.52
V6F	3.76
V6R	4.13
V6D	4.17
V6P	4.17
V6I	2.52
V6A	3.19
V6K	4.43
V6S	4.27
V6E	4.75
V6Y	4.03
R1C	1.89
R1D	4.49
R1E	4.39
R1A	3.89
R1P	4.55
R1L	2.54
R1F	3.17
R1S	3.85
R1N	4.37
R1W	3.15
R1T	4.32
R1H	3.69
R1M	3.33
R1K	3.6
R1V	3.1

Variant	protein stability index
R1Q	3.5
R1I	2.91
R1Y	3.29
R1G	4.34
E5P	3.19
E5M	2.23
E5N	3.98
E5Q	3.22
E5D	3.67
E5K	3.76
E5G	3.6
E5C	2.21
E5V	1.51
E5A	2.7
E5S	3.51
E5L	2
E5T	3.02
E5H	3.02
E5R	3.12
E5F	2.11
E5I	1.93
E5W	1.85
E5Y	2.27
